# Data from patent US12310324B2, “Compositions and methods for minimizing nornicotine synthesis in tobacco” (North Carolina State University, priority 2010, dated 2025).
# Assays:
# [1] = test system: CYP82E10 nicotine demethylase; test: Nicotine demethylase assay, yeast microsomal membranes with [14C]-nicotine, CYP82E10 and variants; format: biochemical, tobacco; set-up: Activity of Mutant Enzyme: concentration or dose not given beside the values; conditions: for Activity of Mutant Enzyme: relative to the wild type enzyme when expressed in yeast; for nicotine demethylase (enzyme) activity, result in words: [14C]-nicotine
# Description: To determine whether CYP82E10 functions as a nicotine demethylase gene, its cDNA was cloned into the yeast expression vector pYeDP60 and transformed into yeast strain W(R). Strain W(R) is a yeast cell line that was engineered to overexpress the yeast NADPH-dependent P450 reductase, an enzyme that serves as the direct electron donor to P450s; this system greatly enhances the detection of foreign P450 enzyme activities that are expressed in yeast (Pompon et al., 1995). Nicotine demethylase assays were conducted by incubating yeast microsomal membrane preparations with [^14C]-nicotine, and resolving the products by thin layer chromatography as described in Siminszky et al. (2005).
# The nucleotide and amino acid residues mutated in these plants are also highlighted in FIG. 1. Although no truncation mutations were observed among these individuals, in several cases, mutations were identified that altered an amino acid residue within a highly conserved region of the enzyme. To determine the effects of a particular mutation on CYP82E10 enzyme activity, site-directed mutagenesis was used to introduce the specific mutations corresponding to seven of the nine mutations shown in Table 2 into the CYP82E10 cDNA within the pYeDP60 yeast expression vector. Microsomal preparations from yeast strains expressing each of the seven CYP82E10 variants were assayed in vitro for nicotine demethylase activity using both non-saturating (2.45 μM) and saturating (50 μM) concentrations of [^14C]-nicotine.
# [2] = test system: CYP82E4 nicotine demethylase
Molecule,Activity of Mutant Enzyme [1],"nicotine demethylase (enzyme) activity, result in words ([1]; yeast microsomes)",loss of nicotine demethylase activity from mutation (knocked out) [1] [%],nicotine demethylase activity relative to the wild-type CYP82E10 polypeptide [1],"reduction in activity compared to the wild type CYP82E10 enzyme ([1]; yeast microsomes, 2.45 μM and 50 μM [14C]-nicotine) [%]",inhibition of nicotine demethylase activity (knocked out) [2] [%]
"Plant 693: CYP82E10 mutant enzyme R417H (mutation G1250A) from plant 693 (protein, listed as Nicotiana tabacum, CYP82E10 R417H Variant) MVSPVEAIVGLVTLTLLFYFIRTKKSQKPSKPLPPKIPGGWPVIGHLFYFDDDSDDRPLARKLGDLADKYGPVFTFRLGLPLVLVVSSYEAIKDCFSTNDAIFSNRPAFLYGEYLGYNNAMLFLTKYGPYWRKNRKLVIQEVLCASRLEKLKHVRFGEIQTSIKNLYTRIDGNSSTINLTDWLEELNFGLIVKMIAGKNYESGKGDEQVERFRKAFKDFIILSMEFVLWDAFPIPLFKWVDFQGHVKAMKRTFKDIDSVFQNWLEEHVKKKEKMEVNAEGNEQDFIDVVLSKMSNEYLDEGYSRDTVIKATVFSLVLDAADTVALHMNWGMALLINNQHALKKAQEEIDKKVGKDRWVEESDIKDLVYLQTIVKEVLRLYPPGPLLVPHENVEDCVVSGYHIPKGTRLFANVMKLQHDPKLWSNPDKFDPERFFAADIDFRGQHYEFIPFGSGRRSCPGMTYAMQVEHLTIAHLIQGFNYKTPNDEPLDMKEGAGLTIRKVNPIEVVITPRLTPELY",100%,did not alter enzyme activity,–,–,–,–
"Plant 1035: CYP82E10 mutant enzyme A344T (mutation G1030A) from plant 1035 (protein, listed as Nicotiana tabacum, CYP82E10 A344T Variant) MVSPVEAIVGLVTLTLLFYFIRTKKSQKPSKPLPPKIPGGWPVIGHLFYFDDDSDDRPLARKLGDLADKYGPVFTFRLGLPLVLVVSSYEAIKDCFSTNDAIFSNRPAFLYGEYLGYNNAMLFLTKYGPYWRKNRKLVIQEVLCASRLEKLKHVRFGEIQTSIKNLYTRIDGNSSTINLTDWLEELNFGLIVKMIAGKNYESGKGDEQVERFRKAFKDFIILSMEFVLWDAFPIPLFKWVDFQGHVKAMKRTFKDIDSVFQNWLEEHVKKKEKMEVNAEGNEQDFIDVVLSKMSNEYLDEGYSRDTVIKATVFSLVLDAADTVALHMNWGMALLINNQHALKKTQEEIDKKVGKDRWVEESDIKDLVYLQTIVKEVLRLYPPGPLLVPHENVEDCVVSGYHIPKGTRLFANVMKLQRDPKLWSNPDKFDPERFFAADIDFRGQHYEFIPFGSGRRSCPGMTYAMQVEHLTIAHLIQGFNYKTPNDEPLDMKEGAGLTIRKVNPIEVVITPRLTPELY",100%,did not alter enzyme activity,–,–,–,–
"Plant 817: CYP82E10 mutant enzyme A410T (mutation G1228A) from plant 817 (protein, listed as Nicotiana tabacum, CYP82E10 A410T) MVSPVEAIVGLVTLTLLFYFIRTKKSQKPSKPLPPKIPGGWPVIGHLFYFDDDSDDRPLARKLGDLADKYGPVFTFRLGLPLVLVVSSYEAIKDCFSTNDAIFSNRPAFLYGEYLGYNNAMLFLTKYGPYWRKNRKLVIQEVLCASRLEKLKHVRFGEIQTSIKNLYTRIDGNSSTINLTDWLEELNFGLIVKMIAGKNYESGKGDEQVERFRKAFKDFIILSMEFVLWDAFPIPLFKWVDFQGHVKAMKRTFKDIDSVFQNWLEEHVKKKEKMEVNAEGNEQDFIDVVLSKMSNEYLDEGYSRDTVIKATVFSLVLDAADTVALHMNWGMALLINNQHALKKAQEEIDKKVGKDRWVEESDIKDLVYLQTIVKEVLRLYPPGPLLVPHENVEDCVVSGYHIPKGTRLFTNVMKLQRDPKLWSNPDKFDPERFFAADIDFRGQHYEFIPFGSGRRSCPGMTYAMQVEHLTIAHLIQGFNYKTPNDEPLDMKEGAGLTIRKVNPIEVVITPRLTPELY",100%,did not alter enzyme activity,–,–,–,–
"Plant 2476: CYP82E10 mutant enzyme G79S (mutation G235A) from EMS treated DH98-325-6 plant 2476 (protein, listed as Nicotiana tabacum, CYP82E10 G79S Variant) MVSPVEAIVGLVTLTLLFYFIRTKKSQKPSKPLPPKIPGGWPVIGHLFYFDDDSDDRPLARKLGDLADKYGPVFTFRLSLPLVLVVSSYEAIKDCFSTNDAIFSNRPAFLYGEYLGYNNAMLFLTKYGPYWRKNRKLVIQEVLCASRLEKLKHVRFGEIQTSIKNLYTRIDGNSSTINLTDWLEELNFGLIVKMIAGKNYESGKGDEQVERFRKAFKDFIILSMEFVLWDAFPIPLFKWVDFQGHVKAMKRTFKDIDSVFQNWLEEHVKKKEKMEVNAEGNEQDFIDVVLSKMSNEYLDEGYSRDTVIKATVFSLVLDAADTVALHMNWGMALLINNQHALKKAQEEIDKKVGKDRWVEESDIKDLVYLQTIVKEVLRLYPPGPLLVPHENVEDCVVSGYHIPKGTRLFANVMKLQRDPKLWSNPDKFDPERFFAADIDFRGQHYEFIPFGSGRRSCPGMTYAMQVEHLTIAHLIQGFNYKTPNDEPLDMKEGAGLTIRKVNPIEVVITPRLTPELY",Not detected,complete enzyme inactivation,100,–,–,–
"Plant 1512: CYP82E10 mutant enzyme P107S (mutation C319T) from EMS treated DH98-325-6 plant 1512 (protein, listed as Nicotiana tabacum, CYP82E10 P107S Variant) MVSPVEAIVGLVTLTLLFYFIRTKKSQKPSKPLPPKIPGGWPVIGHLFYFDDDSDDRPLARKLGDLADKYGPVFTFRLGLPLVLVVSSYEAIKDCFSTNDAIFSNRSAFLYGEYLGYNNAMLFLTKYGPYWRKNRKLVIQEVLCASRLEKLKHVRFGEIQTSIKNLYTRIDGNSSTINLTDWLEELNFGLIVKMIAGKNYESGKGDEQVERFRKAFKDFIILSMEFVLWDAFPIPLFKWVDFQGHVKAMKRTFKDIDSVFQNWLEEHVKKKEKMEVNAEGNEQDFIDVVLSKMSNEYLDEGYSRDTVIKATVFSLVLDAADTVALHMNWGMALLINNQHALKKAQEEIDKKVGKDRWVEESDIKDLVYLQTIVKEVLRLYPPGPLLVPHENVEDCVVSGYHIPKGTRLFANVMKLQRDPKLWSNPDKFDPERFFAADIDFRGQHYEFIPFGSGRRSCPGMTYAMQVEHLTIAHLIQGFNYKTPNDEPLDMKEGAGLTIRKVNPIEVVITPRLTPELY",Not detected,complete enzyme inactivation,100,–,–,–
"Plant 1442: CYP82E10 mutant enzyme P419S (mutation C1255T) from plant 1442 (protein, listed as Nicotiana tabacum, CYP82E10 P419S Variant) MVSPVEAIVGLVTLTLLFYFIRTKKSQKPSKPLPPKIPGGWPVIGHLFYFDDDSDDRPLARKLGDLADKYGPVFTFRLGLPLVLVVSSYEAIKDCFSTNDAIFSNRPAFLYGEYLGYNNAMLFLTKYGPYWRKNRKLVIQEVLCASRLEKLKHVRFGEIQTSIKNLYTRIDGNSSTINLTDWLEELNFGLIVKMIAGKNYESGKGDEQVERFRKAFKDFIILSMEFVLWDAFPIPLFKWVDFQGHVKAMKRTFKDIDSVFQNWLEEHVKKKEKMEVNAEGNEQDFIDVVLSKMSNEYLDEGYSRDTVIKATVFSLVLDAADTVALHMNWGMALLINNQHALKKAQEEIDKKVGKDRWVEESDIKDLVYLQTIVKEVLRLYPPGPLLVPHENVEDCVVSGYHIPKGTRLFANVMKLQRDSKLWSNPDKFDPERFFAADIDFRGQHYEFIPFGSGRRSCPGMTYAMQVEHLTIAHLIQGFNYKTPNDEPLDMKEGAGLTIRKVNPIEVVITPRLTPELY",25%,–,–,about 25%,75,–
"CYP82E4 W329Stop: CYP82E4 variant with stop codon for tryptophan at position 329 (protein, listed as Nicotiana tabacum, CYP82E4 W329Stop Variant) MLSPIEAIVGLVTFTFLFFFLWTKKSQKPSKPLPPKIPGGWPVIGHLFHFNDDGDDRPLARKLGDLADKYGPVFTFRLGLPLVLVVSSYEAVKDCFSTNDAIFSNRPAFLYGDYLGYNNAMLFLANYGPYWRKNRKLVIQEVLSASRLEKFKHVRFARIQASIKNLYTRIDGNSSTINLTDWLEELNFGLIVKMIAGKNYESGKGDEQVERFKKAFKDFMILSMEFVLWDAFPIPLFKWVDFQGHVKAMKRTFKDIDSVFQNWLEEHINKREKMEVNAEGNEQDFIDVVLSKMSNEYLGEGYSRDTVIKATVFSLVLDAADTVALHIN",–,–,–,–,–,100
"CYP82E4 K364N: CYP82E4 variant with asparagine for lysine at position 364 (protein, listed as Nicotiana tabacum, CYP82E4 K364N Variant) MLSPIEAIVGLVTFTFLFFFLWTKKSQKPSKPLPPKIPGGWPVIGHLFHFNDDGDDRPLARKLGDLADKYGPVFTFRLGLPLVLVVSSYEAVKDCFSTNDAIFSNRPAFLYGDYLGYNNAMLFLANYGPYWRKNRKLVIQEVLSASRLEKFKHVRFARIQASIKNLYTRIDGNSSTINLTDWLEELNFGLIVKMIAGKNYESGKGDEQVERFKKAFKDFMILSMEFVLWDAFPIPLFKWVDFQGHVKAMKRTFKDIDSVFQNWLEEHINKREKMEVNAEGNEQDFIDVVLSKMSNEYLGEGYSRDTVIKATVFSLVLDAADTVALHINWGMALLINNQKALTKAQEEIDTKVGKDRWVEESDINDLVYLQAIVKEVLRLYPPGPLLVPHENVEDCVVSGYHIPKGTRLFANVMKLQRDPKLWSDPDTFDPERFIATDIDFRGQYYKYIPFGSGRRSCPGMTYALQVEHLTMAHLIQGFNYRTPNDEPLDMKEGAGITIRKVNPVELIIAPRLAPELY",–,–,–,–,–,100
